Test [1] concerns the target T1, human CD39 expressed on the cell surface (human, UniProt P49961 1-510).
T1 construct: full-length human CD39 transfected into CHO-K1, or endogenous human CD39 on primary cells and cell lines, or human CD39 of knock-in mice; also called Human CD39-CHO-K1; cellular human CD39
T1 sequence: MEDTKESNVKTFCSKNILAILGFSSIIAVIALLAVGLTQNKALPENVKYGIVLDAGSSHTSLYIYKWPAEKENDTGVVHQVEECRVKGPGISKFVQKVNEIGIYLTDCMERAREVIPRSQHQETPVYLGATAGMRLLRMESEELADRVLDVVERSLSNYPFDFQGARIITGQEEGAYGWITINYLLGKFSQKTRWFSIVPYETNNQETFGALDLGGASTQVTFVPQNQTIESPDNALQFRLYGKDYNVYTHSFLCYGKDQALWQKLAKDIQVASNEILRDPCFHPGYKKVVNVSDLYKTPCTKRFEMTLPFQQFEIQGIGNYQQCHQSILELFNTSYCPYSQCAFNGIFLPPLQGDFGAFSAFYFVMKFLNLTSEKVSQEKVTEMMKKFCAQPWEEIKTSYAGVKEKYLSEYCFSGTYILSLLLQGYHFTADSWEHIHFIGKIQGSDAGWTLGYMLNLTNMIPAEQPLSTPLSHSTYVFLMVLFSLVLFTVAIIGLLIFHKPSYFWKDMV
The experiment in a line: flow cytometry on whole blood of C57BL/6 hCD39KI MC38 mice treated in vivo with isotype control, with saline or oxaliplatin; signal over the IgG1.FcS-AF647 isotype control (bottom row of panels). (In general: Flow cytometry measures light scatter and fluorescence of single cells or particles in a stream.)

Test [2] concerns the target T1, human CD39 expressed on the cell surface. The experiment in a line: cell-based or functional assay.
Test [3] has the same target. The experiment in a line: cell-based or functional assay. The source holds these as a separate data set.
Test [4] shares this target. The experiment in a line: flow cytometry on human PBMCs gated on CD19+ B cells, 0 uM ATP (N = 8).
Test [5] shares this target. The experiment in a line: flow cytometry on human PBMCs gated on CD14+ monocytes, 0 uM ATP (N = 8).
For test [6] the target is unchanged. The experiment in a line: flow cytometry on human PBMCs gated on CD19+ B cells, 400 uM ATP (N = 6).
Test [7] shares this target. The experiment in a line: flow cytometry on human PBMCs gated on CD14+ monocytes, 400 uM ATP (N = 6).
The target is the same in test [8]. The experiment in a line: flow cytometry on human PBMCs gated on CD19+ B cells, one donor, 0 µM ATP.
The target is the same in test [9]. The experiment in a line: flow cytometry on human PBMCs gated on CD19+ B cells, one donor, 400 µM ATP.

B1: hu39.5_IGG1.AA-AF647 (antibody, human IgG1, kappa, L234A L235A)
heavy: not shown
light: DTVLTQSPASLAVSPGQRATITCRASEGVKSYMHWYQQKPGQPPKLLIYKASNLASGVPARFSGSGSGTDFTLTINPVEADDTANYYCQQSWNDPTFGQGTKLEIKRTVAAPSVFIFPPSDEQLKSGTASVVCLLNNFYPREAKVQWKVDNALQSGNSQESVTEQDSKDSTYSLSSTLTLSKADYEKHKVYACEVTHQGLSSPVTKSFNRGEC
modifications: antibody conjugated to AF647 (Lightning Link kit; residues not stated)
Consider B1, for which the binding result in test [1] is on record as “binds”.

B2: huBMK2_IGG1.AEASS (antibody, human IgG1, kappa, V domains shown)
VH: QVQLVQSGAEVKKPGASVKVSCKASGYTFTDYNMHWVRQAPGQRLEWIGYIVPLNGGSTFNQKFKGRATITVDTSARTAYMELSSLRSEDTAVYYCARGGTRFAYWGQGTLVTVSS
VL: DIVMTQSPDSLAVSLGERATINCRASESVDNFGVSFMYWFQQKPGQPPKLLIYGASNQGSGVPDRFSGSGSGTDFTLTISSLQAEDVAVYYCQQTKEVPYTFGGGTKVEIKR
notes: also called previously described anti-CD39 antibody (comparator)
Broadly, the EC50 is the concentration at which the effect is half-maximal. One may read the EC50 (read off the curve) as the midpoint of the concentration-response curve. Low readings indicate a more potent agent, high ones a less potent agent. As to B2, the “IC50, CD39 enzymatic inhibition on human monocytes, 20 uM ATP” value in test [2] is 2.7 nM. In addition, in [2], the “Max Inhibition (%), human monocytes, 20 uM ATP” value was 74%. Also, the “IC50, CD39 enzymatic inhibition on human monocytes, 400 uM ATP” value in test [3] was 1.4 nM. In addition, in test [3], the “Max Inhibition (%), human monocytes, 400 uM ATP” value stood at 62%. Moreover, the EC50 in test [4] was determined as 0.9 nM; in [5] it was 1 nM; in test [6], 0.8 nM; in test [7], 1 nM. Further, the “EC50 (read off the curve)” value in test [8] was about 0.7 nM; in [9], about 0.8 nM.

Values taken from patent US20250084178A1 (ARCUS BIOSCIENCES, published 2025).
